Paper doi:10.1101/411223 (bioRxiv, 2018)

What was measured:
Assay in all cases: ITC
[1] = target: T1, Kap114p (S. cerevisiae, UniProt P53067 1-1004)
T1 sequence (looked up): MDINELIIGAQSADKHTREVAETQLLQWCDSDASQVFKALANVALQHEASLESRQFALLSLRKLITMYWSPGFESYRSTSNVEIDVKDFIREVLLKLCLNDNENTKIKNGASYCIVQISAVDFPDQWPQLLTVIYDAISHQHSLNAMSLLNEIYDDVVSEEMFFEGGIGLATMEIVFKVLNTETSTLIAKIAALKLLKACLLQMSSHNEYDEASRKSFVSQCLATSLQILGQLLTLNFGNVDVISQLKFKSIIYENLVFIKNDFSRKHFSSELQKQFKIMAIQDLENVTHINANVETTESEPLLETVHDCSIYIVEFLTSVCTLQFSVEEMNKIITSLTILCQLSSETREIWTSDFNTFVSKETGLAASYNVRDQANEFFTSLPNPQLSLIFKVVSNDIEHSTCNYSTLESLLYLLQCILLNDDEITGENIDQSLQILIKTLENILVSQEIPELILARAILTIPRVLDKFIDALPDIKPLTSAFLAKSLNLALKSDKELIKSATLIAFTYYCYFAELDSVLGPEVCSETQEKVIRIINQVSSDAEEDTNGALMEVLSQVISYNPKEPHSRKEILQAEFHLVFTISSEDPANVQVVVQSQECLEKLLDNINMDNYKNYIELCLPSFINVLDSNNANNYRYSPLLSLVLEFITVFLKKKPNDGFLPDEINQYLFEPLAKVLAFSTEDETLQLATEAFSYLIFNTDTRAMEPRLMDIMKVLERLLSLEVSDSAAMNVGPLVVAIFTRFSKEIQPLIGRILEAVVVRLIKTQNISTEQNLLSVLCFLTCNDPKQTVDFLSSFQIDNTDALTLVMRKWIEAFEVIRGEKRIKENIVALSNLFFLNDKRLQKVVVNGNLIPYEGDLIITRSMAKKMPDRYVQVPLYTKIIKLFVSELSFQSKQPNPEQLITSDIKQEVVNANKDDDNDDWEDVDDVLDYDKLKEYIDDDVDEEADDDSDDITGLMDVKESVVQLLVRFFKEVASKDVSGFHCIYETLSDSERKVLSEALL

[2] = target: T2, Kap95p (S. cerevisiae, UniProt Q06142 1-861)
T2 sequence (looked up): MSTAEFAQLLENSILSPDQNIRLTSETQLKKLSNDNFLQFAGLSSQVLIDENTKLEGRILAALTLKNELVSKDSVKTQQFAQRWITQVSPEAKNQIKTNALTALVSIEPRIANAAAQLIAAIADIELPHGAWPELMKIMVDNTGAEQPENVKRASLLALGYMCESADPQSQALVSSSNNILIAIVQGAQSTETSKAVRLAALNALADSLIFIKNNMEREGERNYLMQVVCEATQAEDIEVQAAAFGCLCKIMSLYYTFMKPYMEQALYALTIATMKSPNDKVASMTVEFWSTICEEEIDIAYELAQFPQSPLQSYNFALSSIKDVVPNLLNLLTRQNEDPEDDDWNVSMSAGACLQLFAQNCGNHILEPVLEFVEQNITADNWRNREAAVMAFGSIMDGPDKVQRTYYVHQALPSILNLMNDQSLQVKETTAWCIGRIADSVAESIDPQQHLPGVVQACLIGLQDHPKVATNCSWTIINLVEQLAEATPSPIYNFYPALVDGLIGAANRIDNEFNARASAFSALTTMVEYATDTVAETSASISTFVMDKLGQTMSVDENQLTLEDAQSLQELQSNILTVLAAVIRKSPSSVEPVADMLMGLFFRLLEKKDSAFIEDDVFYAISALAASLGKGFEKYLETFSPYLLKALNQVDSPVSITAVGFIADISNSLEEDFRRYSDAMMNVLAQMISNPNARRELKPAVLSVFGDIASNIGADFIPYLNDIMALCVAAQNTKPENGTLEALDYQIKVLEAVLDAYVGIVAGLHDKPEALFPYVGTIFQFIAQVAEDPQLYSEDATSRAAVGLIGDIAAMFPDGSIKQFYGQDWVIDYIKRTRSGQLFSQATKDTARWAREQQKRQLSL

[3] = target: T3, Kap114p (Δ899-956) (S. cerevisiae, UniProt P53067 1-1004, Δ899-956)
T3 sequence (looked up): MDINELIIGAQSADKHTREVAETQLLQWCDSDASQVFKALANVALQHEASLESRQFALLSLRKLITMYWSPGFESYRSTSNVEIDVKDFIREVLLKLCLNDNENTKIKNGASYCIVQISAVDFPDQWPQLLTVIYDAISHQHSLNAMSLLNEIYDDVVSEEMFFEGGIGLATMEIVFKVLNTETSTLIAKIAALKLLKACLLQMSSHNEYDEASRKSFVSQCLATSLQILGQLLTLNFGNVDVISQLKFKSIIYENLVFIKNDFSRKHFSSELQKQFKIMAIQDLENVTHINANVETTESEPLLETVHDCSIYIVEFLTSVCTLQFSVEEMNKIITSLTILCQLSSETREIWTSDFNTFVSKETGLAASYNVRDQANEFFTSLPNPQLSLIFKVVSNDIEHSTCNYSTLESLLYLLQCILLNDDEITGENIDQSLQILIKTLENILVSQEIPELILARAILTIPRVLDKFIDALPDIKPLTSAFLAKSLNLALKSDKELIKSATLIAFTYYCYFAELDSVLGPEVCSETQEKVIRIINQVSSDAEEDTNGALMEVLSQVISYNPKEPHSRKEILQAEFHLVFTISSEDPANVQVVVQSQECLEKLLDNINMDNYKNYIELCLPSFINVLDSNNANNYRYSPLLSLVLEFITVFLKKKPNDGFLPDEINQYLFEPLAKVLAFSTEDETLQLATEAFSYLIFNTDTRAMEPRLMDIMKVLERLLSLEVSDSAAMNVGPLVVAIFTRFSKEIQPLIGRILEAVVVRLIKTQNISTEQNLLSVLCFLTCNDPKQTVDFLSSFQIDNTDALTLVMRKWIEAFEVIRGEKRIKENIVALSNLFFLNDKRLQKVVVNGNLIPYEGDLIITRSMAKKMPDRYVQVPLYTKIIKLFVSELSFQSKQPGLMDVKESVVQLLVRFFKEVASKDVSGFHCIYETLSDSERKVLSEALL

Kd [1]: 0.006 µM
Kd [2]: ~10 µM
binding result [3]: binds
B1: yTBP (61-240) (domain or fragment, S. cerevisiae, UniProt P13393 61-240, looked up)
chain: SGIVPTLQNIVATVTLGCRLDLKTVALHARNAEYNPKRFAAVIMRIREPKTTALIFASGKMVVTGAKSEDDSKLASRKYARIIQKIGFAAKFTDFKIQNIVGSCDVKFPIRLEGLAFSHGTFSSYEPELFPGLIYRMVKPKIVLLIFVSGKIVLTGAKQREEIYQAFEAIYPVLSEFRKM
